From US20180009877A1 (ACADEMIA SINICA, published 2018)

B1: M41 (antibody)
chain: MAELDIQMTQTTSSLSASLGDRVTISCRTSQDISNYLNWYQQKPNGTIKLLIYYTSGLYSGVPSRFSGSGSGADYSLTISNVEQEDIATYFCQQVNTLPYTFGGGTKLELKSSGGGGSGGGGGGSSRSSFEVQLQQSGAELVKPGASVKMSCKAFGYTFTTYPIEWMKQNHGKSLEWIGNFHPYNDYTNYNEKFKGKAKLTVEKSSTTVYLELSRLTSDDSAVYYCARRHDGYYGAMDYWGQGTSVTVSSAKTTAPSVTSAAAGAPVPYPDPLEPRAA
notes: also called antibody M41
B2: M32 (antibody)
chain: MAELGIELTQSQKFMSTSVGDRVSITCKASQNVGTAVAWYQQKPGQSPKLLIYSASNRYTGVPDRFTGSGSGTDFTLTISNMQSEDLADYFCQQYSSYPLAFGGGTKLEIKSSGGGGSGGGGGGSSRSSLEVQLVESGAELVRPGALVKLSCKASGFNIKDYFMYWVKQRPEQGLEWVGWIDPENGNTIYDPKFQGKASITADTSSNTAYLQLSSLTSEDTAVYYCTRGYYGSRVLAMDYWGQGTSVTVSSAKTTPPSVTSAAA
notes: also called antibody M32
B3: M62 (antibody)
chain: MAELDIQMIQSQKFMSTSVGDRVSVTCKASQNVGTNVAWYQQKPGQSPKALIHSASYRYSGVPDRFTGSGSGTDFTLTISNVQSEDLAEYFCQQYNSYPLTFGAGTKLEIKSSGGGGSGGGGGGSSRSSLEVQLQQSGTELARPGASVKLSCKASGYTFIDYYITWVKQRTGQGLEWIGEIYPGGGNPYYNDNFKGKASLTADKSSNTVYMQLSSLTSEDSAVYFCARSYKYDVSVYWGQGTLVTVSAAKTTPPSVTSAAAGAPVPYPDPLEPRAA
notes: also called antibody M62
B4: M61 (antibody)
chain: MAELDIKITQSPASLSASVGETVTITCRASENIYSYLAWYQQKQGKSPQLLVYNAKTLAEGVPSRFSGSGSGTQFSLKINSLQPEDFGSYYCQHHYGTPYTFGGGTKLELKSSGGGGSGGGGGGSSRSSLEVQLQQSGAELVKPGASVKMSCKAFGYTFTTYPIEWMKQNHGKSLEWIGNFHPYNDDTKYNEKFKGKAKLTVEKSSSTVYLELSRLTSDDSAVYYCARRNDGYYGAMDYWGQGTSVTVSSAKTTAPSVTSAAAGAPVPYPDPLEPRAA
B5: M63 (antibody)
chain: MAELDAVVTQESALTTSPGETVTLTCRSSTGTVTTSNYANWVQEKPDHLFTGLIGGTKNRAPGVPARFSGSLIGDKAALTITGAQTEDEAIYFCALWYSNHWVFGGGTKLTVLGSSGGGGSGGGGGGSSRSSLEVQLQQSGPELVRPGDSVKISCKASGYTFSDYAVHWVKRSHGKSLEWIGVISIYYDNINYNQNFKGKATMTVDKSSSTAYLELARLTSEDSAIYYCARRGFDYWGPGTTLTVSSAKTTAPSVTSAAA
B6: M64 (antibody)
chain: MAELDIQMNQSHKFMSTSVGDRVSITCKASQDVSTAVAWYQQKPGQSPKLLIYWASTRHTGVPGRFTGSGSGADYTLTISSVQAEDLALYYCQQHYSTPYTFGGGTKLEIKSSGGGGSGGGGGGSSRSSLEVQLQQSGAELVKPGASVKLSCTASGFNIKNTYMHWVKQRPEQGLEWIGRIDPANGNTKYDPKLQGKATITADTSSNTAYLHLSSLTSEDTAVYYCVPYYRGAMDYWGQGTSVTVSSESQSFPNVTSAAAGAPVPYPDPLEPRAA
B7: H32 (antibody)
chain: DIQMTQSPSSLSASVGDRVTITCKASQNVGTAVAWYQQKPGKAPKLLIYSASNRYTGVPSRFSGSGSGTDFTLTISSLQPEDFATYYCQQYSSYPLAFGQGTKVEIKRGGGGSIEGRSGGGGSEVQLVESGGGLVQPGGSLRLSCKASGFNIKDYFMYWVRQAPGKGLEWVGWIDPENGNTIYDPKFQGRFTISADTSKNTAYLQMNSLRAEDTAVYYCTRGYYGSRVLAMDYWGQGTLVTVSSASAAA
notes: also called antibody H32

Key:
polypeptide HER2/ECD [1] = molecular target: T1, polypeptide HER2/ECD (human, UniProt P04626 23-646); assay: SPR (BIAcore), HER2/ECD immobilized, IgG in flow
Protocol: BIAcore T200 (GE Healthcare) instrument was used to determine the binding affinities and kinetic parameters for interactions between antibody and antigen HER2/ECD. HER2/ECD in 10 mM acetate buffer (pH 5.0) was immobilized on a CM5 sensor chip to a response unit (RU) of 1000 with an amine coupling kit. Association (kₒₙ) and dissociation (koff) constants of the interactions between IgGs and HER2/ECD were measured in PBST running buffer (0.05% Tween 20) with a flow rate of 30 μL/min. […] Binding kinetics was determined by global fitting to 1:1 binding model using the Biaevaluation software (GE Healthcare).

polypeptide HER2/ECD [2] = molecular target: T1, polypeptide HER2/ECD; assay: ELISA, IgG on immobilized HER2/ECD
Protocol: The EC₅₀ of antibody was determined by titrating the antibody on immobilized HER2/ECD with ELISA. Briefly, NUNC 96-well Maxisorb immunoplates were coated with HER2/ECD peptides (0.2 μg per well) in PBS buffer (pH 7.4) via overnight incubation at 4° C., the plates were then blocked with 5% skim milk in PBST [0.05% (v/v) Tween 20] for 1 h. In the meantime, twofold serial dilutions of the antibody in PBST with 5% milk were performed and 11 different concentrations of the antibody were generated. After blocking, 100 μL diluted antibody samples were added to each well, and incubated for 1 h under gentle shaking. The plate was washed 6 times with 300 μL PBST and then added with 100 μL 1:2000-diluted horse-radish peroxidase/anti-human IgG antibody conjugate in PBST with 5% milk for 1 h incubation. The plates were washed 6 times with PBST buffer and twice with PBS, developed for 3 min with 3,3′,5,5′-tetramethyl-benzidine peroxidase substrate (Kirkegaard & Perry Laboratories), quenched with 1.0 M HCl and read spectrophotometrically at 450 nm.

| Binder | Kd (polypeptide HER2/ECD [1]) | koff (polypeptide HER2/ECD [1]) | kon (polypeptide HER2/ECD [1]) | EC50 (polypeptide HER2/ECD [2]) |
| --- | --- | --- | --- | --- |
| B1 | 0.0519 nM | 3.48e-05 s⁻¹ | 671000 M⁻¹ s⁻¹ | 3.4 ng/mL |
| B2 | 0.243 nM | 7.15e-05 s⁻¹ | 294000 M⁻¹ s⁻¹ | 3.1 ng/mL |
| B3 | 0.0228 nM | 1.8e-05 s⁻¹ | 788000 M⁻¹ s⁻¹ | 2 ng/mL |
| B4 | 0.591 nM | 0.0024 s⁻¹ | 4.06e+06 M⁻¹ s⁻¹ | 3.5 ng/mL |
| B5 | – | 7.34e-05 s⁻¹ | – | 2.4 ng/mL |
| B6 | 0.195 nM | 0.000337 s⁻¹ | 1.74e+06 M⁻¹ s⁻¹ | 3.1 ng/mL |
| B7 | 0.242 nM | 3.85e-05 s⁻¹ | 159000 M⁻¹ s⁻¹ | 3.2 ng/mL |
